From patent US20130302346A1 (LEXICON PHARMACEUTICALS, published 2013)

Tests used:
Human NOTUM = target: T1, Human NOTUM (human, UniProt Q6P988 20-496); experiment: Biacore 3000
T1 construct: also called human notum pectinacetylesterase; recombinant human NOTUM
T1 sequence: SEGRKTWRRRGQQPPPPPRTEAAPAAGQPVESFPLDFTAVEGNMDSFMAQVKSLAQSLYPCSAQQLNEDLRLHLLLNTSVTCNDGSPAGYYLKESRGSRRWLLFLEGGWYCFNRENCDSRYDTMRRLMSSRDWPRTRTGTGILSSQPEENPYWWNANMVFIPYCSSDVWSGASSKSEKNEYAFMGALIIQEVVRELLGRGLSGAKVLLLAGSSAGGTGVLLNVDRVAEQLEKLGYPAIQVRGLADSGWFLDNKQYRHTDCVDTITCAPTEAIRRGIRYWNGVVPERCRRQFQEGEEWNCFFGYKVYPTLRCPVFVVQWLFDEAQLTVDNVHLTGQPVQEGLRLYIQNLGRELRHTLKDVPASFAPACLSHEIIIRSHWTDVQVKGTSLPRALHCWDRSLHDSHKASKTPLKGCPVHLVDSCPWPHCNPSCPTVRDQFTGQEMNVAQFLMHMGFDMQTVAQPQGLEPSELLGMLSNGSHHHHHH
Description: Binding affinities of certain anti-NOTUM MAbs was determined using a Biacore 3000. In order to obtain meaningful affinity values for binding to multimeric […] NOTUM protein, antibody FAb fragments were generated by digestion of whole IgG with the protease Ficin, followed by removal of undigested IgG and Fc fragments by protein A affinity chromatography. Affinity values for binding of FAbs and whole IgG to human NOTUM corresponded, and their affinity values were in the single to low double digit nM range, as shown in Table 3.

H-M = target: T2, H-M; experiment: ELISA on conditioned medium of HEK293F transfected with the NOTUM construct (Example 6.7)
T2 construct: Drawn on the sheet as human N-terminal part and mouse C-terminal part; Produced by transient transfection of HEK293F and used as conditioned medium; also called Human-mouse chimeric NOTUM
T2 single chain: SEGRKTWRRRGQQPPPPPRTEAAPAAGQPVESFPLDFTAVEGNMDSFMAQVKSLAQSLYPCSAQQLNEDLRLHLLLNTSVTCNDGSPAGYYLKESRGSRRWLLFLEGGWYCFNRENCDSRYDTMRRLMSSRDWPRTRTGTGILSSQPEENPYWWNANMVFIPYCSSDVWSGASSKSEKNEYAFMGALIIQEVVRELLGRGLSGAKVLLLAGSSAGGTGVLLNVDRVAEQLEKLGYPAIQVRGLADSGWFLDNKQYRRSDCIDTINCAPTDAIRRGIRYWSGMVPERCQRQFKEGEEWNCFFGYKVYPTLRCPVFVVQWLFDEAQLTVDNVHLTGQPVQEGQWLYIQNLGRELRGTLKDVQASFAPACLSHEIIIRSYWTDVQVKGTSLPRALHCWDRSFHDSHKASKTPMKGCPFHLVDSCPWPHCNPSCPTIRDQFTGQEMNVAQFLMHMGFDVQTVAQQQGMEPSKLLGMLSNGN
Excerpt: (§1) The sequences of those proteins are shown in Section 7 (Table of Sequences). The conditioned media were used in ELISA format to determine antibody specificity. […] Within this region, mouse and human NOTUM differ at five positions (R115K, D141S. R150K, R154H, and Y171H, based on the human sequence numbering). Human NOTUM point mutants were generated by transient transfection of constructs expressing human NOTUM with the mouse amino acid at each of these five positions and the point mutants were all shown to be functional in the OPTS assay.

H(N96D) = target: T3, H(N96D); experiment: as above
T3 construct: Human NOTUM with N96D, marked inside the Q47-M177 box on the sheet; also called Human NOTUM N96D
T3 single chain: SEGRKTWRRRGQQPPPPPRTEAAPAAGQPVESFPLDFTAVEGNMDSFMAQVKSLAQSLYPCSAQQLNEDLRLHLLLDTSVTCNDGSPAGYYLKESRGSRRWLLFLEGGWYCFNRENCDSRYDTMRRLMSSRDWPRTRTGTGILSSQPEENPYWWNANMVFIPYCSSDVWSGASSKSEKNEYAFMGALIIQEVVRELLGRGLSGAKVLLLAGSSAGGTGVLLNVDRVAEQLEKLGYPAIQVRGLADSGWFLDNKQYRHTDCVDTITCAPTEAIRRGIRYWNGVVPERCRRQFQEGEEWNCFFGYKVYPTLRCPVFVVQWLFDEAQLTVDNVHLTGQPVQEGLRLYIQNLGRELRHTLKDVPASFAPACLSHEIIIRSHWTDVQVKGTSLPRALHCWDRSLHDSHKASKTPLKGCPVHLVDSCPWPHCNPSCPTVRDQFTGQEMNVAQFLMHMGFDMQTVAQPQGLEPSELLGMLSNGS
Excerpt: as §1

Mouse NOTUM = target: T4, Mouse NOTUM (mouse, UniProt Q8R116 20-503); experiment: ELISA (column 'Mouse NOTUM binding')
T4 construct: also called recombinant mouse NOTUM
T4 sequence: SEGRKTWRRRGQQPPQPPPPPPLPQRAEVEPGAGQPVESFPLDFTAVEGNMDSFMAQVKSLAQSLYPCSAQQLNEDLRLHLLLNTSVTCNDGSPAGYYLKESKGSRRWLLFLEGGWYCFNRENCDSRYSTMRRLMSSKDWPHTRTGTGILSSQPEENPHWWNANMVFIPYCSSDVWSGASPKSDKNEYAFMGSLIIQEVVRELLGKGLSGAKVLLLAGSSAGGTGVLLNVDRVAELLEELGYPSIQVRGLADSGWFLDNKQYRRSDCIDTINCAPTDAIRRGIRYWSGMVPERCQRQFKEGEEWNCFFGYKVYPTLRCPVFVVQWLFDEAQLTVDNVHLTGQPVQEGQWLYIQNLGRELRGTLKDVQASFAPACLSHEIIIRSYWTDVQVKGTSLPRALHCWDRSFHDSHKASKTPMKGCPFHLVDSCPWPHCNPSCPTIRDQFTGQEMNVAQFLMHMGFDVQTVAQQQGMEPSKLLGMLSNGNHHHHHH

B1: MAb 1.802 (antibody, V domains shown)
VH: EVQLVESGGGLVKPGGSLKLSCAASGFTFSDYGMHWFRQAPEKGLEWVAYISSGSRTVYYADTVKGRFTISRDNAKNTLSLQMTSLRSEDTAMYYCARKHYNGGYFDVWGTGTTVTVSS
VL: DIVLTQSPASLAVSLGQRATISCRASKIVSTSGYSYMHWYQQKPGQPPKLLIYLASNLESGVPARFSGSGSGTDFTLNIHPVEEEDAATYYCQHSRELPPTFGSGTKLEIKR
notes: Mouse monoclonal antibody from Campaign 1 (raised against human NOTUM), IgG1
Question: For B1, which Kd (Human NOTUM) is on record?
Answer: 1.42 nM

Question: What about the kon (Human NOTUM) of the same binder?
Answer: 257000 M⁻¹ s⁻¹

Question: Does B1 bind (H-M)?
Answer: binds

Question: Does B1 bind (H(N96D))?
Answer: binds

Question: Does B1 bind (Mouse NOTUM)?
Answer: no binding

B2: MAb 1.815 (antibody, IgG1, V domains shown)
VH: DVQLLESGGGLVQPGGSRKLSCAASGFTFSDFGMHWVRQAPEKGLEWVAYSSSGGTTVYYADTVKGRLTLSRDNSKNTLFLEMTSLRSEDTAMYYCARASYDGGYFDCWGQGTSLTVSS
VL: DIVLTQSPASLAVSLGQRATISCRASKSVSTSGYSYIHWYQQKPGQPPKLLIYLASDLESGVPARFSGSGSGAAFTLNIHPVEEEDAATYYCHHSRELPFTFGSGTKLEIKR
notes: Mouse monoclonal antibody from Campaign 1, IgG1
Question: Does B2 bind (H-M)?
Answer: binds

Question: Does B2 bind (H(N96D))?
Answer: binds

Question: Does B2 bind (Mouse NOTUM)?
Answer: no binding

B3: MAb 1.846 (antibody, IgG2b, V domains shown)
VH: EVQLVESGGDLVKPGGSLKLSCAASGFTFSDYGMHWLRQAPEKGLEWVAYISSGSTTLSYANTMKGRFTISRDNAKKTLSLQMTSLRSEDTAIYYCARKNYNGGYFDVWGTGTTVTVSS
VL: DIVLTQSPASLVVSLGQRATISCRASKSVSESGYSYMHWYQQKPGQPPKLLIYLASNLESGVPARFSGSGSGTDFTLNIHPVEEGDATTYYCQHSRVLPPTFGSGTKLEIKR
notes: Mouse monoclonal antibody from Campaign 1, IgG2b
Question: Does B3 bind (H-M)?
Answer: binds

Question: Does B3 bind (H(N96D))?
Answer: binds

Question: Does B3 bind (Mouse NOTUM)?
Answer: no binding
